This note sets out measurements from patent US20240116985A1 (published 2024).

Starred links: 1 amine or outer side, 2 acyl side, 3 side chain; linkers in the order of their positions; H or OH if unused. Positions of bridges follow the written chain, without caps; N, C: chain ends. Non-standard residues stand in square brackets, D forms with d. Primed or numbered codes have the meaning given here. PyrS2″ = (S)-3-amino-1-((pent-4-en-1-yloxy)carbonyl)pyrrolidine-3-carboxylic acid (stapling residue), C=CCCCOC(=O)N1CC[C@@](N[*:1])(C(=O)[*:2])C1; B5(16) = 2-amino-2-(pent-4-en-1-yl)hept-6-enoic acid = 2,2-bis(4-pentenyl)glycine (stitching residue), C=CCCCC(CCCC=C)(N[*:1])C(=O)[*:2]; B5(23) = 2-amino-2-(pent-4-en-1-yl)hept-6-enoic acid (2,2-bis(4-pentenyl)glycine), stitching residue, C=CCCCC(CCCC=C)(N[*:1])C(=O)[*:2]; B5(21) = 2-amino-2-(pent-4-en-1-yl)hept-6-enoic acid, bis(4-pentenyl)glycine (stitching residue), C=CCCCC(CCCC=C)(N[*:1])C(=O)[*:2]; Bta = N[C@@H](Cc1csc2ccccc12)C(=O)O; αAllylPro = C=CC[C@@]1(C(=O)O)CCCN1; Cit = NC(=O)NCCC[C@H](N)C(=O)O; S8 = C=CCCCCCC[C@](C)(N)C(=O)O Bounds are passed on as bounds.

The target of assay [1] is T1, B-cat-Halo (beta-catenin HaloTag NanoBRET construct expressed in HEK293 cells) (UniProt P35222 1-781).
T1 sequence (looked up): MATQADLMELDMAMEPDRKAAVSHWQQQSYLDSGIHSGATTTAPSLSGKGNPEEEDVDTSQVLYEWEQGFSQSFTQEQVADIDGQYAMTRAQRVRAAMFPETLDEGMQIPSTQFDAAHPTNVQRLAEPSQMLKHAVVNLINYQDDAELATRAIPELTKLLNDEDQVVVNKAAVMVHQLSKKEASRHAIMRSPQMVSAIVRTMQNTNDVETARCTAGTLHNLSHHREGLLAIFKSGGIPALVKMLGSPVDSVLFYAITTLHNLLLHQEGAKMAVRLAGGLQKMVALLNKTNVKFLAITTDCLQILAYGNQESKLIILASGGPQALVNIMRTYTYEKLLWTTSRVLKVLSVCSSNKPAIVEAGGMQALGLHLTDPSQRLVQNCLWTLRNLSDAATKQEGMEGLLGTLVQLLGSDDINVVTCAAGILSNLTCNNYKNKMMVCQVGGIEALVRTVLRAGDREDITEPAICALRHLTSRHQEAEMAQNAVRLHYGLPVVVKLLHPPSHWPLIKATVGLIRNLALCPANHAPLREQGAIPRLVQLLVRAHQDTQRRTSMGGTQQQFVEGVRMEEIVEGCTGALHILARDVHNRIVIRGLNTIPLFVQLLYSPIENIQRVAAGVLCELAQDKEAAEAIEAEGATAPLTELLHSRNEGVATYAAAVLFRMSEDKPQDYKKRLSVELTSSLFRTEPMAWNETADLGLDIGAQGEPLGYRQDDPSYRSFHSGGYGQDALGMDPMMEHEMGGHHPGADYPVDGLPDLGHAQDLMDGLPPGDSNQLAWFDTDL
Briefly: cell-based or functional assay.

For assay [2], the target named is T2, B-cat-Halo (beta-catenin HaloTag NanoBRET construct expressed in HEK293 cells) (UniProt P35222 1-781, HaloTag labelled with HaloTag NanoBRET 618 Ligand).
T2 sequence (looked up): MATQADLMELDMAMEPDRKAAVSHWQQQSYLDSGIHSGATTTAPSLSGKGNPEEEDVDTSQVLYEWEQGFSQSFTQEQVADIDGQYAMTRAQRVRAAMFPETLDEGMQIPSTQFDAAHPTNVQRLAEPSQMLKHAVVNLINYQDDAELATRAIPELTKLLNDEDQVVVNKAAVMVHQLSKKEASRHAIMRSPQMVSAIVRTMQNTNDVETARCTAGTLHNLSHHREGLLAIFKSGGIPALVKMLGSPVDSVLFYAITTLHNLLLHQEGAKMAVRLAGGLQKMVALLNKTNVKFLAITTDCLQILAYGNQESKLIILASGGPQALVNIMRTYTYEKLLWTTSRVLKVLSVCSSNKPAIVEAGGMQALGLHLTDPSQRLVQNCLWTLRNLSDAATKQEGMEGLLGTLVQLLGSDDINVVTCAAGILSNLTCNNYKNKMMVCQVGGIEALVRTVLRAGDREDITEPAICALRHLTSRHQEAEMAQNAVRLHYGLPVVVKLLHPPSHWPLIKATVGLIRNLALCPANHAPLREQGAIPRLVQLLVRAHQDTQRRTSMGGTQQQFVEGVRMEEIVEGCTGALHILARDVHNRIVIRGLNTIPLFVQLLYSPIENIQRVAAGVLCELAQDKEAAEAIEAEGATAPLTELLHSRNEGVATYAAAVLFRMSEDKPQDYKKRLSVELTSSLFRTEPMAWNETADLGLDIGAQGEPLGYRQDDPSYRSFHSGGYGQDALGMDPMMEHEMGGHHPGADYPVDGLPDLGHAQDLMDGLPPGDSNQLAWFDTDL
Briefly: cell-based or functional assay.

Assay [3] concerns the target T3, full-length beta-Catenin (Uniprot ID P35222) (Homo sapiens (Human), UniProt P35222 2-781).
T3 construct: also called bCat; B-Catenin
T3 sequence: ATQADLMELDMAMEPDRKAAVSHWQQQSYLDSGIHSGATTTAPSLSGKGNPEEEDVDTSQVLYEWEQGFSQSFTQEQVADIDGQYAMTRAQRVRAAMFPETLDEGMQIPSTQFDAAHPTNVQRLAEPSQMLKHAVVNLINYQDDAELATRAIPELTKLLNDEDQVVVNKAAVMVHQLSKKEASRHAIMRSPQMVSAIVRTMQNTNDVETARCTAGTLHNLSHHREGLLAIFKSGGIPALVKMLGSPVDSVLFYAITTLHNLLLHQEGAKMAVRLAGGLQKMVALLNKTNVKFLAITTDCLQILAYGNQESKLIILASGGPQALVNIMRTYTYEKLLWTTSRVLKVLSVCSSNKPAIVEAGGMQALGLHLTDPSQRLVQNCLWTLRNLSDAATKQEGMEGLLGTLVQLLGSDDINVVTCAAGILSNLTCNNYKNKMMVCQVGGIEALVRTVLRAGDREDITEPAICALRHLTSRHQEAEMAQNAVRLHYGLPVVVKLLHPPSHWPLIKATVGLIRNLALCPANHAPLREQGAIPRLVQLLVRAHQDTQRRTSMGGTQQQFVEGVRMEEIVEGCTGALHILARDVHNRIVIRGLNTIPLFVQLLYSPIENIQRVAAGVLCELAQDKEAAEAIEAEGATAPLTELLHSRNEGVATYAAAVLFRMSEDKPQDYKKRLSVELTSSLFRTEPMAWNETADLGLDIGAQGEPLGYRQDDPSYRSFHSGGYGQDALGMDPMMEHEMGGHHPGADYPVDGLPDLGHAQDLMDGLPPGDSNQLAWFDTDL
Kind of assay: fluorescence polarization competition; 10 nM full-length beta-catenin + 10 nM 5FAM-TCF4(10-53) probe, peptide titrated. The method, then: (§1) The plate was incubated protected from light for 60 minutes at 20° C. prior to read. Reads were performed on a CLARIOstar plate reader (BMG Labtech) in duplicate, and data were fitted to a 1:1 binding model with hill slope using an in-house script. All provided concentrations are final concentrations.

Assay [4] has as its target T4, B-cat-Halo (UniProt P35222 1-781).
T4 sequence (looked up): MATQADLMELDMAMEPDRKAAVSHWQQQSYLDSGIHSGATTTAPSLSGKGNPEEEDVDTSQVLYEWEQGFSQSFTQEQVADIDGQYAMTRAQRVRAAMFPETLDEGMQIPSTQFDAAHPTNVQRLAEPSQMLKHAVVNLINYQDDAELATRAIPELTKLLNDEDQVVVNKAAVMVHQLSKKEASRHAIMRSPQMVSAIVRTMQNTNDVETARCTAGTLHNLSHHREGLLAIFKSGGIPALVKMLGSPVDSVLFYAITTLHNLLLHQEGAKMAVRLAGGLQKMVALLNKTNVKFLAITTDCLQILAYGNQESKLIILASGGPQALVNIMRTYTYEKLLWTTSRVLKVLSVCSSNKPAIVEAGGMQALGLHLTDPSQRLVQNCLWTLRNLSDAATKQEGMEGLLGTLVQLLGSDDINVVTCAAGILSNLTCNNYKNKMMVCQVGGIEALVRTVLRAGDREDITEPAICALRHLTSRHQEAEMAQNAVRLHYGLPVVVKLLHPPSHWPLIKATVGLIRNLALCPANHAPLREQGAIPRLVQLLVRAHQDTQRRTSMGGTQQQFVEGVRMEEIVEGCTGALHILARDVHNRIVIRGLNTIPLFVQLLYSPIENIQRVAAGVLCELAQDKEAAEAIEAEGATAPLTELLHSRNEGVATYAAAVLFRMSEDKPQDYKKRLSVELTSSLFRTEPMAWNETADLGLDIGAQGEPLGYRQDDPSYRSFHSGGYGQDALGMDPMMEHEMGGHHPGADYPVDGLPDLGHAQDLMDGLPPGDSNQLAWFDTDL
Briefly: cell-based or functional assay.

The target in assay [5] is T5, full-length beta-Catenin (Uniprot ID P35222) (Homo sapiens (Human), UniProt P35222 2-781).
T5 construct: The assay protocols say only 'full-length'; No tag is stated, although the AlphaScreen kit is a Histidine (Nickel Chelate) kit; also called B-Catenin; bCat
T5 sequence: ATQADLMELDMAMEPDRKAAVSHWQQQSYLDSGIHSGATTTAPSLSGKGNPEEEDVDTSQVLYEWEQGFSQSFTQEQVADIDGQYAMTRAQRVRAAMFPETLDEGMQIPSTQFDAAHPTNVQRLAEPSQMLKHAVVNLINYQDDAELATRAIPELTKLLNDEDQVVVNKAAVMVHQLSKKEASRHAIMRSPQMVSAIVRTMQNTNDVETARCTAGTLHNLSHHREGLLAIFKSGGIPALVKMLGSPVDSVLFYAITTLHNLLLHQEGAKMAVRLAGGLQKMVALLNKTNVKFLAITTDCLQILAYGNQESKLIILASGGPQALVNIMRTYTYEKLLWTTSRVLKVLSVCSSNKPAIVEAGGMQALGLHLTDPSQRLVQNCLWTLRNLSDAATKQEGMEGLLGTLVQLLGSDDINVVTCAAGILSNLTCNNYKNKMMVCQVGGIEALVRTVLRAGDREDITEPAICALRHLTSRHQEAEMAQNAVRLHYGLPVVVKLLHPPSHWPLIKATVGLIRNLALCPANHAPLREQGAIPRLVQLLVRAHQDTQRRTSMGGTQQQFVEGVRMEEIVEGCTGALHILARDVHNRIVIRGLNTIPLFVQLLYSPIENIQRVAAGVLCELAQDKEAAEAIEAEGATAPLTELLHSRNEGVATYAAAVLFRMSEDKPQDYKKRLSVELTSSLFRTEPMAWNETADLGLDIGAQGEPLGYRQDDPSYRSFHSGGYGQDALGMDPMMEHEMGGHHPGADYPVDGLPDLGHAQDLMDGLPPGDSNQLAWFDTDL
Briefly: AlphaScreen competition; peptide titrated against full-length beta-catenin + biotin-TCF4(10-53). The method, then:
Equal volume of the titrated peptide was added to the plate and incubated for 15 minutes at 20° C. Then 4 uL of donor and 4 uL acceptor beads at 10 ug/mL were added to the plate, for a 16 uL reaction pool and protected from light for 60 minutes at 20° C. prior to read. Reads were performed on a CLARIOstar plate reader (BMG Labtech) in duplicate, and data were fitted to a 1:1 binding model with hill slope using an in-house script. All provided concentrations are final concentrations.
(In Alpha technology, singlet oxygen from a donor bead excites a nearby acceptor bead.)

In assay [6] the target is T5, full-length beta-Catenin (Uniprot ID …). Briefly: fluorescence polarization competition; peptide titrated against full-length beta-catenin + 5FAM-TCF4(10-53) probe. The procedure:
as §1
A general note: Polarisation of emitted light reports the rotation of a fluorescent probe.

Assay [7] has as its target T6, B-cat-Halo (UniProt P35222 1-781).
T6 sequence (looked up): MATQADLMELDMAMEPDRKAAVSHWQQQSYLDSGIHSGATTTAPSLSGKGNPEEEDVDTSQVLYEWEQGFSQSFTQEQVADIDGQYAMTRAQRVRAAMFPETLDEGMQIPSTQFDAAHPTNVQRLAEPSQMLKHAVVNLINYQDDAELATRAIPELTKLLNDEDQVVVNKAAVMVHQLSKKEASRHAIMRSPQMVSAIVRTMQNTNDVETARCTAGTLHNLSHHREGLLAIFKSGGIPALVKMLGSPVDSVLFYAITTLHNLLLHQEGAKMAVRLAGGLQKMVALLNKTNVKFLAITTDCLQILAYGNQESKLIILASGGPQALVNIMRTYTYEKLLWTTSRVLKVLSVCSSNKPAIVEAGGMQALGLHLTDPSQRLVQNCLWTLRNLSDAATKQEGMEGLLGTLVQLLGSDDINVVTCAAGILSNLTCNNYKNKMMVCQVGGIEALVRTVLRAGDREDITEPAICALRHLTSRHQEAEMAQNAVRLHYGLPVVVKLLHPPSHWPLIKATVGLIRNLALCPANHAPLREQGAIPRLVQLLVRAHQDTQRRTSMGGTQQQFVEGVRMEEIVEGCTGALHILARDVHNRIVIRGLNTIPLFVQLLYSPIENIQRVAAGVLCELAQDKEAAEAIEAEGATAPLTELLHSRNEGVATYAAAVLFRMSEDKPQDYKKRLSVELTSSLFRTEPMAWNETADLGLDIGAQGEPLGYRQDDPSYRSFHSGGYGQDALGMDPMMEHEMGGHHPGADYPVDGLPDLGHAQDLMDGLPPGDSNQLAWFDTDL
Kind of assay: cell-based or functional assay. The source holds these as a separate data set.

As for Ac-[αAllylPro]DA[B5(21)]DEAAFN[PyrS2″]F[Bta]Q-NH2 (staple 1-4, 4-11) [I-462], the “NanoBRET Abs IC50” value in assay [1] was more than 20 µM.
As a reminder, the EC50 is the concentration at which the effect is half-maximal. With Ac-[αAllylPro]DI[B5(23)]DEAAFQ[S8]F[Bta]Q-NH2 (staple 1-4, 4-11, Stapled (stitched) peptide) [I-407], in assay [2], the “NanoBRET % inh @ 10 uM” value is 55.1%. In addition, the EC50 in assay [3] stood at 30 nM.

B1: I-357 (peptide)
peptide: XDAXDDAAFVXFAQ
modifications: not fully specified; N-terminal Ac; C-terminal NH2; PL3 at 1, B5 at 4, S8 at 11 (stapled 1-4 and 4-11)
notes: Stapled peptide composition; Earlier-eluting isomer composition; also called Ac-PL3-Asp-Ala-B5-Asp-Asp-Ala-Ala-Phe-Val-S8-Phe-Ala-Gln-NH2
For the molecule B1, the “NanoBRET % inh @ 10 uM” value in the assay with B-cat-Halo [4] was -5.3%. Further, the figures for the concentration for a half-maximal effect (EC50) in assay [5] and in assay [6] were 10 µM and 5 µM, respectively.

B2: I-629 (peptide)
peptide: Ac-[αAllylPro]DL[B5(16)]DEAAF[Cit][S8]F[Bta]-NH2
modifications: staple 1-4, 4-11; not fully specified; printed as Ac-PL3-Asp-Leu-B5-Asp-Glu-Ala-Ala-Phe-Cit-S8-Phe-BztA-NH2
Take B2: the “NanoBRET Abs IC50” value in the assay with B-cat-Halo [7] worked out at 30 µM.
